The values below come from article PMC5148603.

Experiment [1] addresses coiled-coil domain of wild-type human ANGPTL4 (residues 1–159) (human). Nature of the experiment: SDS-PAGE before and after reduction (disulfide-linked oligomers); Coomassie blue-stained gel of purified ANGPTL4 1–159 before and after reduction and alkylation; optical scanning of lanes of two-fold serial dilutions.
For experiment [2], the target named is T1, bovine lipoprotein lipase (bovine) (UniProt P11151).
T1 sequence: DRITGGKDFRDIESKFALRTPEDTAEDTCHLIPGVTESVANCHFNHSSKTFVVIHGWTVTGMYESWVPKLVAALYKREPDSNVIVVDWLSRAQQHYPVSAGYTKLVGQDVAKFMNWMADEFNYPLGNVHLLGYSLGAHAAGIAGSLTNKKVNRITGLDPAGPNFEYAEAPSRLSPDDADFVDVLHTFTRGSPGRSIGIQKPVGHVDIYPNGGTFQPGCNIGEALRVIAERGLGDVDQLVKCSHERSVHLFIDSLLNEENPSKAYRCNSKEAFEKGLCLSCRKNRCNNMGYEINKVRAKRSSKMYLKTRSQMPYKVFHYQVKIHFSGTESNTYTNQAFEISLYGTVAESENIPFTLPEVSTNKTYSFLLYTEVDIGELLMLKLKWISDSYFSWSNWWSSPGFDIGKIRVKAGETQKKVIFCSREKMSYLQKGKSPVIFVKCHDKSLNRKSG
To be noted: scale: molecules of LPL per ANGPTL4 molecule per min.

In experiment [3] the target is T1, bovine lipoprotein lipase (bovine). To be noted: scale: molecules LPL per ANGPTL4 molecule per min.

As usually defined, the stoichiometry N is the number of molecules, sites or subunits per partner or assembly. In experiment [1], “coiled-coil domain of wild-type human ANGPTL4 (residues 1–159) (domain or fragment)” came in with a percent of the total protein that is covalent (disulfide-linked) dimer of 10% and a stoichiometry N of 2. In experiment [2], this molecule had a catalytic efficacy of unfolding of LPL's hydrolase domain (pulse-labelling HDX-MS, bimodality of peptide 131–165); 10 µM LPL with 0.25, 0.5 and 1 µM ANGPTL4 1–159, 25°C, early time points of 1.6.

B1: coiled-coil domain of human ANGPTL4 E15K (residues 1–159) (domain or fragment)
chain: MGPVQSKSPRFASWDKMNVLAHGLLQLGQGLREHAERTRSQLSALERRLSACGSACQGTEGSTDLPLAPESRVDPEVLHSLQTQLKAQNSRIQQLFHKVAQQQRHLEKQHLRIQHLQSQFGLLDHKHLDHEVAKPARRKRLPEMAQPVDPAHNVSRLHRL
Regarding B1, in experiment [3], the catalytic efficacy of unfolding of LPL's hydrolase domain (pulse-labelling HDX-MS, peptide 131–165); 10 µM LPL with 0.5, 1 and 2 µM ANGPTL4 1–159/E15K, 25°C, linear phases of the progress curves is 0.6.
